Non-standard residues stand in square brackets, D forms with d. No end group written: not given here. *: point of attachment. NMeF = CN[C@@H](Cc1ccccc1)C(=O)O; NHCH2CH2OH = OCCN*

The experiment concerns the target T1, mDOR-1 (Mus musculus, UniProt P32300).
T1 chain: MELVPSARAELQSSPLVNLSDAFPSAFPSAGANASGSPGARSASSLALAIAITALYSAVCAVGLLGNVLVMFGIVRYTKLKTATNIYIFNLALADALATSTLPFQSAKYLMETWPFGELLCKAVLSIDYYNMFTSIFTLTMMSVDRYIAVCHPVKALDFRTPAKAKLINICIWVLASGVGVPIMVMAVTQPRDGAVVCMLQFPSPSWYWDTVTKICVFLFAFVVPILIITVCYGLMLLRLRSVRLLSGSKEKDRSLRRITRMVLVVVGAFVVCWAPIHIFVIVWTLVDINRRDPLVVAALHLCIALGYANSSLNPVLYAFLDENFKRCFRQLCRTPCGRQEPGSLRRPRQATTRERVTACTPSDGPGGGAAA
Briefly: 125I-IBNtxA competition, CHO membranes.

B1: DAMGO (peptide)
chain: Y[dA]G[NMeF][NHCH2CH2OH]
The Ki is a dissociation constant, usually derived from enzyme kinetics or from competition with a known ligand. Read a high Ki as a looser hold on the target. B1: the inhibition constant (Ki) was > 500 nM.

For the origin of these results see paper PMC5177531 (2016).
